From patent US20100305307A1 (published 2010) come the findings set out here.

In test [1] the target is human EGF-r expressed on the surface of human carcinoma cells (A431, SW948) (human) (UniProt P00533). The test is described as follows: cell-based or functional assay.
For test [2], the target named is soluble EGF-r purified from A431 cell membranes (Sigma, E-3641) (human, UniProt P00533 25-1210, limits assumed). The test is described as follows: BIAcore, solid phase, antigen immobilized on the sensor surface.
Description: Determination of affinity constants of fully human Mabs by BIAcore: Affinity measurement of purified human monoclonal antibodies, Fab fragments, or hybridoma supernatants by plasmon resonance was carried out using the BIAcore 2000 instrument, using general procedures outlined by the manufacturers.
Based upon the general procedures outlined by the manufacture, kinetic analyses of the antibodies were performed using antigens immobilized onto the sensor surface at a low density. […] The dissociation (kd or koff) and association (ka or kₒₙ) rates were determined using the software provided by the manufacturer (BIA evaluation 2.1).

Molecule murine monoclonal antibody 528 displayed an IC50, inhibition of A431 cell proliferation in vitro in test [1] of 0.66 nM.

B1: antibody secreted by the hybridoma E1.1 (antibody, V domains shown)
VH: VSGGSINSGDYYWSWIRQHPGKGLDCIGYIYYSGSTYYNPSLKSRVTISVDTSKNQFFLKLTSVTAADTAVYYCARSTVVNPGWFDPWGQGTLVTVSS
VL: TITCQASQDINNYLNWFQQKPGKAPKVLIHDASNLETGGPSRFSGSGSGTDFTFTISGLQPEDIATYYCQQYESLPLTFGGGTKVEIKR
notes: Fully human IgG2 heavy chain with human kappa light chain; they were cloned by PCR between V-region and constant-region primers, so they are probably not full chains
B1 gave a Kd in test [2] of 0.076 nM.
